Laboratory results as given in patent publication US20120114557A1.
Bridge positions count the residues as written; N and C are the ends. Square brackets hold non-standard residues; d marks the D form. Ends that are not written are not given here. NMeA = CN[C@@H](C)C(=O)O; Sar = CNCC(=O)O

B1: SEQ ID NO: 158 (peptide)
peptide: YHACYQ[dA]GCWIW
modifications: disulfide 4-9 (inferred)
B2: SEQ ID NO: 107 (peptide)
peptide: YHACYQAGCYIW
modifications: disulfide 4-9 (inferred)
B3: SEQ ID NO: 154 (peptide)
peptide: YH[dA]CYQAGCWIW
modifications: disulfide 4-9 (inferred)
B4: SEQ ID NO: 174 (peptide)
peptide: GQWTCSGDEYTW[dH]CNYE
modifications: disulfide 5-14 (inferred); not fully specified (C-terminus)
B5: SEQ ID NO: 169 (peptide)
peptide: GQWTCSG[dD]EYTWHCNYE
modifications: disulfide 5-14 (inferred); not fully specified (C-terminus)
B6: SEQ ID NO: 164 (peptide)
peptide: G[dQ]WTCSGDEYTWHCNYE
modifications: disulfide 5-14 (inferred)
B7: SEQ ID NO: 160 (peptide)
peptide: YHACYQAGC[dW]IW
modifications: disulfide 4-9 (inferred)
B8: SEQ ID NO: 179 (peptide)
peptide: DWTCS[dA]DEYTWHCNYE
modifications: disulfide 4-13 (inferred); not fully specified (C-terminus); printed as D W T C S a D E Y T W H C N Y E
B9: SEQ ID NO: 180 (peptide)
peptide: DWTCS[dS]DEYTWHCNYE
modifications: disulfide 4-13 (inferred); not fully specified (C-terminus); printed as D W T C S s D E Y T W H C N Y E
B10: SEQ ID NO: 166 (peptide)
peptide: GQW[dT]CSGDEYTWHCNYE
modifications: disulfide 5-14 (inferred)
B11: SEQ ID NO: 171 (peptide)
peptide: GQWTCSGDE[dY]TWHCNYE
modifications: disulfide 5-14 (inferred); not fully specified (C-terminus)
B12: SEQ ID NO: 170 (peptide)
peptide: GQWTCSGD[dE]YTWHCNYE
modifications: disulfide 5-14 (inferred); not fully specified (C-terminus)
B13: SEQ ID NO: 105 (peptide)
peptide: YHACYQ[NMeA]GCWIW
modifications: disulfide 4-9 (inferred)
B14: SEQ ID NO: 153 (peptide)
peptide: Y[dH]ACYQAGCWIW
modifications: disulfide 4-9 (inferred)
B15: SEQ ID NO: 12 (peptide)
peptide: PMICHAPYVGKCNFL
modifications: disulfide 4-12 (inferred)
B16: SEQ ID NO: 172 (peptide)
peptide: GQWTCSGDEY[dT]WHCNYE
modifications: disulfide 5-14 (inferred); not fully specified (C-terminus)
B17: SEQ ID NO: 173 (peptide)
peptide: GQWTCSGDEYT[dW]HCNYE
modifications: disulfide 5-14 (inferred); not fully specified (C-terminus)
B18: SEQ ID NO: 156 (peptide)
peptide: YHAC[dY]QAGCWIW
modifications: disulfide 4-9 (inferred)
B19: SEQ ID NO: 137 (peptide)
peptide: YHACYQAGCWAW
modifications: disulfide 4-9 (inferred)
B20: SEQ ID NO: 162 (peptide)
peptide: YHACYQAGCWI[dW]
modifications: disulfide 4-9 (inferred)
B21: SEQ ID NO: 104 (peptide)
peptide: YHACYQA[Sar]CWIW
modifications: disulfide 4-9 (inferred)
B22: SEQ ID NO: 176 (peptide)
peptide: GQWTCSGDEYTWHC[dN]YE
modifications: disulfide 5-14 (inferred); not fully specified (C-terminus)
B23: SEQ ID NO: 182 (peptide)
peptide: DWTCS[dY]DEYTWHCNYE
modifications: disulfide 4-13 (inferred); not fully specified (C-terminus); printed as D W T C S y D E Y T W H C N Y E
B24: SEQ ID NO: 161 (peptide)
peptide: YHACYQAGCW[dI]W
modifications: disulfide 4-9 (inferred)
B25: SEQ ID NO: 168 (peptide)
peptide: GQWTC[dS]GDEYTWHCNYE
modifications: disulfide 5-14 (inferred)
B26: SEQ ID NO: 142 (peptide)
peptide: GQWTCSADEYTWHCNYE
modifications: disulfide 5-14 (inferred)
B27: SEQ ID NO: 177 (peptide)
peptide: GQWTCSGDEYTWHCN[dY]E
modifications: disulfide 5-14 (inferred); not fully specified (C-terminus)
B28: SEQ ID NO: 165 (peptide)
peptide: GQ[dW]TCSGDEYTWHCNYE
modifications: disulfide 5-14 (inferred)
B29: SEQ ID NO: 157 (peptide)
peptide: YHACY[dQ]AGCWIW
modifications: disulfide 4-9 (inferred)
B30: SEQ ID NO: 183 (peptide)
peptide: DWTCS[dL]DEYTWHCNYE
modifications: disulfide 4-13 (inferred); not fully specified (C-terminus); printed as D W T C S l D E Y T W H C N Y E
B31: SEQ ID NO: 181 (peptide)
peptide: DWTCS[dR]DEYTWHCNYE
modifications: disulfide 4-13 (inferred); not fully specified (C-terminus); printed as D W T C S r D E Y T W H C N Y E

Experiments:
[1] = biological target: human collagen type I (human) (UniProt P02452); assay: dried collagen assay, 5 uM peptide
human collagen type I (human), sequence (P02452 162-1218 limits assumed, chain 1 of 2): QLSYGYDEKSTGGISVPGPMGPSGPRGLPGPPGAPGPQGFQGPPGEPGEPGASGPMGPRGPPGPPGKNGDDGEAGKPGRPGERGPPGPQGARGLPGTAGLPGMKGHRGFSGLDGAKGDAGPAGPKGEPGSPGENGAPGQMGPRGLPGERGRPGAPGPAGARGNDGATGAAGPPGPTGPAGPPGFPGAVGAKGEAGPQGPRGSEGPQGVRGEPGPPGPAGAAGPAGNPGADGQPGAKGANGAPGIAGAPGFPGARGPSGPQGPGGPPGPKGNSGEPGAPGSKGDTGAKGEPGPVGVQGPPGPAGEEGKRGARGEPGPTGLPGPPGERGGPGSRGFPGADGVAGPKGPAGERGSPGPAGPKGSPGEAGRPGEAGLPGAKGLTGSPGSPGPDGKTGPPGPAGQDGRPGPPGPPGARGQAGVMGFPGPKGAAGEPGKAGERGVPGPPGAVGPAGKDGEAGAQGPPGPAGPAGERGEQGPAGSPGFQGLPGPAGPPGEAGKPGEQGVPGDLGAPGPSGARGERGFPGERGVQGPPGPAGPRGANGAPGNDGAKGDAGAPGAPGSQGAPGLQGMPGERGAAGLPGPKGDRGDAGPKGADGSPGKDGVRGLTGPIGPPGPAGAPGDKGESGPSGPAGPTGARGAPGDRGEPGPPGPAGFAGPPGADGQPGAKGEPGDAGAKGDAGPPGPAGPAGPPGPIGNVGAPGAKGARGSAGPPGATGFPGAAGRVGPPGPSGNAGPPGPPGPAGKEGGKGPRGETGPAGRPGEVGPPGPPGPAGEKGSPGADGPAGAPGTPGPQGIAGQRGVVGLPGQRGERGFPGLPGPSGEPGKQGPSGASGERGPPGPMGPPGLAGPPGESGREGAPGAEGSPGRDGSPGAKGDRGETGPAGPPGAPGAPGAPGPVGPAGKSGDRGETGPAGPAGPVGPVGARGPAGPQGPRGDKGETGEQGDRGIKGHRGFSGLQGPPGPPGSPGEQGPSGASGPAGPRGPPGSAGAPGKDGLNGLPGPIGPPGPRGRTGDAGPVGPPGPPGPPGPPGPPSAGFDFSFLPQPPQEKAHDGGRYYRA
human collagen type I (human), sequence (P08123 80-1119 limits assumed, chain 2 of 2, further chain): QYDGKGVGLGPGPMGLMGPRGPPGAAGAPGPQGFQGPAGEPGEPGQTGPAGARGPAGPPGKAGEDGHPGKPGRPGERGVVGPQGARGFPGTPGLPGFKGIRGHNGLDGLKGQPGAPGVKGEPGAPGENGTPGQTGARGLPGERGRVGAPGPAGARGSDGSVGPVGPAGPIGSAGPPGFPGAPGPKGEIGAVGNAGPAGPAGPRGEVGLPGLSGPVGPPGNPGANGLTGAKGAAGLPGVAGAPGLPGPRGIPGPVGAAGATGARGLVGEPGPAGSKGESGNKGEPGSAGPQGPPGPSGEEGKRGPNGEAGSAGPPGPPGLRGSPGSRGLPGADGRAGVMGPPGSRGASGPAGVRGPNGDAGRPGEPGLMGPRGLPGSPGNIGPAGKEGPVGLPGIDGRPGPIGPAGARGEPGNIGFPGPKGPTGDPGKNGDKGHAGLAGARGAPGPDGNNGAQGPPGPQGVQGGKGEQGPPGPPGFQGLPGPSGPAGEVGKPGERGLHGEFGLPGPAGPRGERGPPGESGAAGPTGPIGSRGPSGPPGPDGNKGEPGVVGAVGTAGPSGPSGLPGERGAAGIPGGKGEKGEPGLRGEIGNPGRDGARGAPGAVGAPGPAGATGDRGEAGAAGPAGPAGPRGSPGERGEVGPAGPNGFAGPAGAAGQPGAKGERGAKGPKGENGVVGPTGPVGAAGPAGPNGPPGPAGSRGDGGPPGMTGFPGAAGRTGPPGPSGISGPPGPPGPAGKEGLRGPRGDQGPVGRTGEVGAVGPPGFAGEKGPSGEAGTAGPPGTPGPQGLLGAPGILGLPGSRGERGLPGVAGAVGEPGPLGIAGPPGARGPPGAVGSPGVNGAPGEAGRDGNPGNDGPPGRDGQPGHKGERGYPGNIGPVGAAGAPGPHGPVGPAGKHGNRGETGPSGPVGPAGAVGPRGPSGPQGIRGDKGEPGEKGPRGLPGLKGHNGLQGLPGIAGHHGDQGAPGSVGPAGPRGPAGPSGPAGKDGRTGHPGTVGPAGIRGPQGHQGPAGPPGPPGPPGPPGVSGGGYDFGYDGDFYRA

[2] = biological target: rat collagen type I (rat) (UniProt P02454); assay: dried collagen assay, 5 uM peptide
rat collagen type I (rat), sequence (P02454 152-1207, chain 1 of 2): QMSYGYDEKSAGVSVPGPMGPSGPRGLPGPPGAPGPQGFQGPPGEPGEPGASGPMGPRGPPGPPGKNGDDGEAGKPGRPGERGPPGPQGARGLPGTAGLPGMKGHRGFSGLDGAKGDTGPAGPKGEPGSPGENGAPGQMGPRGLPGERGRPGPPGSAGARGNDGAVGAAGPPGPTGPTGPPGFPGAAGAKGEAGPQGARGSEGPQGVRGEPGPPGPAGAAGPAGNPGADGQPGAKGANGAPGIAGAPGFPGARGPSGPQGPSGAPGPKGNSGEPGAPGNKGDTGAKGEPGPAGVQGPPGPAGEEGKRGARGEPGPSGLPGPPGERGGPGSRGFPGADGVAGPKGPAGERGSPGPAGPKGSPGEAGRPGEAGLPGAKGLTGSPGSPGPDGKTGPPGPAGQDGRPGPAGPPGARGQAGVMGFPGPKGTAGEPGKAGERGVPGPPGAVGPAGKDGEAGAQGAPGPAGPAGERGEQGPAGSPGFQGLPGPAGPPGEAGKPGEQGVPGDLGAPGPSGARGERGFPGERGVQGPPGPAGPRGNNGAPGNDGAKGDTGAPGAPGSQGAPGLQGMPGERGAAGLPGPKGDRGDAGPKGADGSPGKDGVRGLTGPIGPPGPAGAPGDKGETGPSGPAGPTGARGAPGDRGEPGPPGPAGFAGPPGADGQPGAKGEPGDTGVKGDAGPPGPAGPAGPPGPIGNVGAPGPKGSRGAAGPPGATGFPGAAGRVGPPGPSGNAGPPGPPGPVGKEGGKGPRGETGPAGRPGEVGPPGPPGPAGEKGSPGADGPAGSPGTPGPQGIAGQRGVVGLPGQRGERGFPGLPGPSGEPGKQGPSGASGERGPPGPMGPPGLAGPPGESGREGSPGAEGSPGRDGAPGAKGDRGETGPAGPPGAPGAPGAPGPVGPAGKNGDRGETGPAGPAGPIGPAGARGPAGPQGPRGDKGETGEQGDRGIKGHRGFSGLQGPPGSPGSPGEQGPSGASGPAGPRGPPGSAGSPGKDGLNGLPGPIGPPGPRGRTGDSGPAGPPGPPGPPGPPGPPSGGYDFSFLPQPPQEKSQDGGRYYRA
rat collagen type I (rat), sequence (P02466 86-1125, chain 2 of 2, further chain): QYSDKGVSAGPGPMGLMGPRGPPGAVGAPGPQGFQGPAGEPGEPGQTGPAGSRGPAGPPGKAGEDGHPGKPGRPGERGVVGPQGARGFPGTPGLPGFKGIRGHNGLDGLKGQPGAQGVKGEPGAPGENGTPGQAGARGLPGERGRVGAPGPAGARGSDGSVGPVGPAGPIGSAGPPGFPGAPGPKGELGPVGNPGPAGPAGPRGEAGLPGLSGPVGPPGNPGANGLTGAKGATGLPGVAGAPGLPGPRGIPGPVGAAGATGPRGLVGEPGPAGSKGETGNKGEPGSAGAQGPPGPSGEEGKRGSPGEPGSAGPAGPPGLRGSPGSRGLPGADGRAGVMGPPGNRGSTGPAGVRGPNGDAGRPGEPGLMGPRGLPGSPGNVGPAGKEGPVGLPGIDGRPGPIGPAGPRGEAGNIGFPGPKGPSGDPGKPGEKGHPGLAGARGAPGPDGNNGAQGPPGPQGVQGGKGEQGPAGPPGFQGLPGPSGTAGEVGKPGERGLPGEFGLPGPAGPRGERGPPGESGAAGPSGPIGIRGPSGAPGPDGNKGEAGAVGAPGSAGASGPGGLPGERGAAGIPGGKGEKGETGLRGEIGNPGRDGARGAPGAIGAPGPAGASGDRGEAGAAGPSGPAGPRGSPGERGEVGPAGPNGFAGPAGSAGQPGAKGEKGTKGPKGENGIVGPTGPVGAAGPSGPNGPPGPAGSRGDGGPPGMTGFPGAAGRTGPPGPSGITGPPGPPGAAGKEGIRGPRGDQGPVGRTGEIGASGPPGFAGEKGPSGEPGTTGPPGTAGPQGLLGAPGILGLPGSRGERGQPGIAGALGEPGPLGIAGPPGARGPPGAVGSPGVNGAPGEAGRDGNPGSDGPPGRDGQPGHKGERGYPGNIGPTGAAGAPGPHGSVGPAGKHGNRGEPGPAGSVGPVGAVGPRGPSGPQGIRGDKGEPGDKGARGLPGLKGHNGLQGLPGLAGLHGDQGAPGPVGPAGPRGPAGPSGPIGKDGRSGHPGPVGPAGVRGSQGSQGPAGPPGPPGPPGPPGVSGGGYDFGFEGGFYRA

| Binder | % Collagen Binding, Dried Human [1] | % Collagen Binding, Dried Rat [2] | Dried Human Collagen Binding [1] |
| --- | --- | --- | --- |
| B1 | 56% | 66% |  |
| B2 |  | 6% |  |
| B3 | 24% | 21% |  |
| B4 | 5% | 0% |  |
| B5 | 11% | 4% |  |
| B6 | 46% | 31% |  |
| B7 | 20% | 12% |  |
| B8 | 81% | 75% |  |
| B9 | 81% | 72% |  |
| B10 | 2% | 3% |  |
| B11 | 13% | 6% |  |
| B12 | 49% | 35% |  |
| B13 | 9% | 23% |  |
| B14 | 0% | 0% |  |
| B15 |  |  | 7% |
| B16 | 9% | 8% |  |

| Binder | % Collagen Binding, Dried Human [1] | % Collagen Binding, Dried Rat [2] | Dried Human Collagen Binding [1] |
| --- | --- | --- | --- |
| B17 | 5% | 4% |  |
| B18 | 38% | 48% |  |
| B19 |  | 7% |  |
| B20 | 18% | 14% |  |
| B21 | 12% | 19% |  |
| B22 | 2% | 2% |  |
| B23 | 89% | 86% |  |
| B24 | 8% | 10% |  |
| B25 | 3% | 2% |  |
| B26 |  | 6% |  |
| B27 | 30% | 27% |  |
| B28 | 2% | 4% |  |
| B29 | 37% | 35% |  |
| B30 | 73% | 63% |  |
| B31 | 87% | 86% |  |
